What all share (test): high-throughput RNA pulldown from lysate on Ni-NTA beads; HRP: 50 mM Tris pH 8, 150 mM NaCl, 1 mM beta-mercaptoethanol, 50 ug/ml BSA, 3 ug/ml yeast RNA, 0.5% heparin; ITC and FP: Tris pH 8, 200 mM KCl, 5% glycerol; MST: 50 mM Tris pH 8, 200 mM NaCl, 1 mM DTT, BSA, heparin, 0.05% Tween 20
Holding throughout (settings): tags: N-terminal His-eGFP

In data set [1] the target is T1, GFP-9S library array, motif 4 ND N98C;D124C (synthetic construct, N98C;D124C).
T1 chain: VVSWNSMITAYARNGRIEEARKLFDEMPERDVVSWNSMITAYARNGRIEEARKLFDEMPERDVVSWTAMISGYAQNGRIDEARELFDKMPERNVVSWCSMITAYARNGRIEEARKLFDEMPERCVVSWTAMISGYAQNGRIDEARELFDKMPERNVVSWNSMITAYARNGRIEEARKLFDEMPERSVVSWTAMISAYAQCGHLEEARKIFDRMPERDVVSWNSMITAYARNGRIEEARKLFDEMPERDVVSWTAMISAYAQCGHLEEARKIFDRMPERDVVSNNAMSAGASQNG

In data set [2] the target is T2, GFP-9S library array, motif 4 ND N98S;D124E (synthetic construct, N98S;D124E).
T2 chain: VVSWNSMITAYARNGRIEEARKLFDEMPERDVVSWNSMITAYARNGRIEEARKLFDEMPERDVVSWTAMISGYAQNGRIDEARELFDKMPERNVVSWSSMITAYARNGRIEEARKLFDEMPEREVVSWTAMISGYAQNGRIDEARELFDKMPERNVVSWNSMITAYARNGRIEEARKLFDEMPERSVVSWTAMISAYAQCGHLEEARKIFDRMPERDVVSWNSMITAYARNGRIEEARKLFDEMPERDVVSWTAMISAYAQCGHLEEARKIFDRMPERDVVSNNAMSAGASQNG

Data set [3] concerns the target T3, GFP-9S library array, motif 4 ND N98C;D124M (synthetic construct, N98C;D124M).
T3 chain: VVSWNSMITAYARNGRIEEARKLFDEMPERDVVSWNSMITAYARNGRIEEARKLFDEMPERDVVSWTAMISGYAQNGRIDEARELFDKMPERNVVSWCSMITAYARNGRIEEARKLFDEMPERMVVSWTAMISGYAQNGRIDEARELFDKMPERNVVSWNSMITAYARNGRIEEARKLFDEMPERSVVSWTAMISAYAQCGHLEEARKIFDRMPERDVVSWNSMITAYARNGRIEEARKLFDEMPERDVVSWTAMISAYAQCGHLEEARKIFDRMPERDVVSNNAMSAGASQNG

Data set [4] has as its target T4, GFP-9S library array, motif 4 ND N98G;D124Y (synthetic construct, N98G;D124Y).
T4 chain: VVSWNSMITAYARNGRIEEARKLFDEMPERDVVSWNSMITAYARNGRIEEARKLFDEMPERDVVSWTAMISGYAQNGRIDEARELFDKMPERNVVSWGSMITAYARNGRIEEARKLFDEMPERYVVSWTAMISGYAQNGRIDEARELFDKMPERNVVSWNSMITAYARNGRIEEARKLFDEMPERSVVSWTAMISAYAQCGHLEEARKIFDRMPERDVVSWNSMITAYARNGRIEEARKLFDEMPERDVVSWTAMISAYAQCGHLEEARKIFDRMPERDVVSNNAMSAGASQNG

The target in data set [5] is T5, GFP-9S library array, motif 4 ND N98T;D124V (synthetic construct, N98T;D124V).
T5 chain: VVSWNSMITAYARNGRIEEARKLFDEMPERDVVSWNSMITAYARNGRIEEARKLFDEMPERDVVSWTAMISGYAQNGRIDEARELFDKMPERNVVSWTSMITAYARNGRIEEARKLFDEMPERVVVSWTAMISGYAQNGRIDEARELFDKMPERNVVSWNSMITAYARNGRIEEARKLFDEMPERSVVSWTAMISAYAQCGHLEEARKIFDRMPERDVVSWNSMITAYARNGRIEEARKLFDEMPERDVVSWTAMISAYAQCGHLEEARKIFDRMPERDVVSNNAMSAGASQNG

On to AUUAAACGUGA (ssRNA) [IR-rpoA-A], for which the Kd amounted to 43.7 nM in data set [1] (label: 5' IRDye 800CW); 70.5 nM in data set [2] (label: 5' IRDye 800CW); 266 nM in data set [3] (label: 5' IRDye 800CW); 548 nM in data set [4] (label: 5' IRDye 800CW); 31.1 nM in data set [5] (label: 5' IRDye 800CW).

In the case of AUUAUACGUGA (ssRNA) [IR-rpoA-U], the equilibrium dissociation constant (Kd) in data set [1] (label: 5' IRDye 800CW) was 243 nM; in data set [2] (label: 5' IRDye 800CW), 201 nM; in data set [3] (label: 5' IRDye 800CW) it was 179 nM; in data set [4] (label: 5' IRDye 800CW), 574 nM; in data set [5] (label: 5' IRDye 800CW), 140 nM.

Turning to AUUAGACGUGA (ssRNA) [Cy5-rpoA-G], the Kd is 70.5 nM in data set [1] (label: 5' Cy5); 122 nM in data set [2] (label: 5' Cy5); 113 nM in data set [3] (label: 5' Cy5); 280 nM in data set [4] (label: 5' Cy5); 85.6 nM in data set [5] (label: 5' Cy5).

With AUUACACGUGA (ssRNA) [Cy5-rpoA], the Kd was found to be 264 nM in data set [1] (label: 5' Cy5); 276 nM in data set [2] (label: 5' Cy5); 90.5 nM in data set [3] (label: 5' Cy5); 272 nM in data set [4] (label: 5' Cy5); 95.8 nM in data set [5] (label: 5' Cy5).

The values above are taken from article PMC8809517, “Cofactor-independent RNA editing by a synthetic S-type PPR protein”.
